# Measurements as given in US20220153796A1.
# B1: MPMQDIKM (peptide)
# peptide: MPMQDIKM
# B2: … (peptide)
# peptide: RAQLKLVAL
# B3: … (peptide)
# peptide: FNKRKPLSL
# B4: … (peptide)
# peptide: MAQFKEISL
# B5: … (peptide)
# peptide: VASPKHCVL
# B6: YMHKLLVL (peptide)
# peptide: YMHKLLVL
# B7: … (peptide)
# peptide: HLLQKQTSI
# B8: LPFPKFTV (peptide)
# peptide: LPFPKFTV
# B9: … (peptide)
# peptide: ELKKLYCQI
# B10: … (peptide)
# peptide: ALKLRVAVL
# B11: ILKVKVGL (peptide)
# peptide: ILKVKVGL
# B12: … (peptide)
# peptide: ILLPRTVSL
# B13: … (peptide)
# peptide: MLKQKVEEL
# B14: … (peptide)
# peptide: DAIQRKYSC
# B15: LPPKKFVL (peptide)
# peptide: LPPKKFVL
# B16: … (peptide)
# peptide: EIRIRVVQM
# B17: … (peptide)
# peptide: EAMLRNKEL
# B18: … (peptide)
# peptide: ELKKKEYEEL
# B19: … (peptide)
# peptide: AIISRLVAL
# B20: … (peptide)
# peptide: DIYQRALNL
# B21: … (peptide)
# peptide: VIKEKALTL
# B22: LVKVKVLL (peptide)
# peptide: LVKVKVLL
# B23: … (peptide)
# peptide: EAAIRSVEL
# B24: … (peptide)
# peptide: QENSYQSRL
# B25: … (peptide)
# peptide: SEIEQEIGSL
# B26: … (peptide)
# peptide: AEIQPQTQV
# B27: … (peptide)
# peptide: GEVSGLTKDF
# B28: … (peptide)
# peptide: RELQHEHSL
# B29: … (peptide)
# peptide: TEREWADEW
# B30: … (peptide)
# peptide: EENDQSTHKW
# B31: … (peptide)
# peptide: AEVGFVRFF
# B32: … (peptide)
# peptide: SEIEDSTKQVF
# B33: … (peptide)
# peptide: SEDDPILQI
# B34: … (peptide)
# peptide: AEDQLHHSF
# B35: … (peptide)
# peptide: TEFPIIKMY
# B36: … (peptide)
# peptide: SEIGKAVGF
# Molecular target: HLA-B*08 (human)
# Test: UV peptide exchange ELISA
row,Binder,peptide exchange yield
1,B1,> 75%
2,B2,> 75%
3,B3,50 to 75%
4,B4,> 75%
5,B5,50 to 75%
6,B6,> 75%
7,B7,50 to 75%
8,B8,> 75%
9,B9,> 75%
10,B10,> 75%
11,B11,> 75%
12,B12,> 75%
13,B13,> 75%
14,B14,50 to 75%
15,B15,> 75%
16,B16,> 75%
17,B17,> 75%
18,B18,> 75%
19,B19,> 75%
20,B20,> 75%
21,B21,50 to 75%
22,B22,> 75%
23,B23,> 75%

# Molecular target: HLA-B*44 (human)
# Test: UV peptide exchange ELISA
row,Binder,peptide exchange yield
1,B24,50 to 75%
2,B25,50 to 75%
3,B26,50 to 75%
4,B27,20 to 50%
5,B28,50 to 75%
6,B29,50 to 75%
7,B30,50 to 75%
8,B31,> 75%
9,B32,50 to 75%
10,B33,50 to 75%
11,B34,50 to 75%
12,B35,20 to 50%
13,B36,> 75%
